# Residue numbers refer to the chain shown, from its start.
# T1: CYP2C8-K399R (human) (UniProt P10632)
# T1 sequence: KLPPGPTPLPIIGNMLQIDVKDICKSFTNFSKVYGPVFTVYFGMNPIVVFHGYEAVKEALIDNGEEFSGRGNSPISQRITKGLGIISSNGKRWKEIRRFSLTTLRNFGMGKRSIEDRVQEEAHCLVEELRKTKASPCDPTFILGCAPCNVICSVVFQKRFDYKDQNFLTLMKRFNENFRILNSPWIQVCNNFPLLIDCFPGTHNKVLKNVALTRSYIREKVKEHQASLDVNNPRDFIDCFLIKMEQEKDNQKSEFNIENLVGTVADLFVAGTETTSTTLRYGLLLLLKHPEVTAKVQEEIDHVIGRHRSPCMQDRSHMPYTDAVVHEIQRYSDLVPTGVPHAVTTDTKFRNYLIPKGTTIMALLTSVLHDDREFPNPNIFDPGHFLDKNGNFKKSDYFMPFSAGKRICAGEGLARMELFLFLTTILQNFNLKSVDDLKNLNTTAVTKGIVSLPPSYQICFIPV
# T2: CYP2C8-R139K (human) (UniProt P10632)
# T2 sequence: T1 sequence with R112K, R372K
# T3: Cytochrome P450 2C8 (CYP2C8*1, wildtype) (human) (UniProt P10632)
# T3 sequence: T1 sequence with R372K
# T4: Cytochrome P450 2C8 R139K/K399R (CYP2C8*3) (human) (UniProt P10632)
# T4 sequence: T1 sequence with R112K
# B1: Cytochrome P450 reductase (enzyme)
# chain: MGDSHEDTSATMPEAVAEEVSLFSTTDMVLFSLIVGVLTYWFIFRKKKEEIPEFSKIQTTAPPVKESSFVEKMKKTGRNIIVFYGSQTGTAEEFANRLSKDAHRYGMRGMSADPEEYDLADLSSLPEIDKSLVVFCMATYGEGDPTDNAQDFYDWLQETDVDLTGVKFAVFGLGNKTYEHFNAMGKYVDQRLEQLGAQRIFELGLGDDDGNLEEDFITWREQFWPAVCEFFGVEATGEESSIRQYELVVHEDMDVAKVYTGEMGRLKSYENQKPPFDAKNPFLAAVTANRKLNQGTERHLMHLELDISDSKIRYESGDHVAVYPANDSALVNQIGEILGADLDVIMSLNNLDEESNKKHPFPCPTTYRTALTYYLDITNPPRTNVLYELAQYASEPSEQEHLHKMASSSGEGKELYLSWVVEARRHILAILQDYPSLRPPIDHLCELLPRLQARYYSIASSSKVHPNSVHICAVAVEYEAKSGRVNKGVATSWLRAKEPAGENGGRALVPMFVRKSQFRLPFKSTTPVIMVGPGTGIAPFMGFIQERAWLREQGKEVGETLLYYGCRRSDEDYLYREELARFHKDGALTQLNVAFSREQAHKVYVQHLLKRDREHLWKLIHEGGAHIYVCGDARNMAKDVQNTFYDIVAEFGPMEHTQAVDYVKKLMTKGRYSLDVWS
# Tests used:
# CYP2C8-K399R (human) = biological target: T1, CYP2C8-K399R (human)
# CYP2C8-R139K (human) = biological target: T2, CYP2C8-R139K (human)
# [1] = biological target: T3, Cytochrome P450 2C8 (CYP2C8*1, wildtype) (human)
# [2] = biological target: T4, Cytochrome P450 2C8 R139K/K399R (CYP2C8*3) (human)
binder,measurement,setting,value
B1,"stopped-flow CO binding (first electron transfer from CPR), fast phase k1, 1:1 CPR:CYP, 70 uM paclitaxel, 37 °C",CYP2C8-K399R (human),0.445 s⁻¹
same,"stopped-flow CO binding (first electron transfer from CPR), slow phase k2, 1:1 CPR:CYP, 70 uM paclitaxel, 37 °C",CYP2C8-K399R (human),19.4 ms^-1
same,"stopped-flow CO binding (first electron transfer from CPR), fast phase k1, 1:1 CPR:CYP, 70 uM paclitaxel, 37 °C",CYP2C8-R139K (human),0.406 s⁻¹
same,"stopped-flow CO binding (first electron transfer from CPR), monophasic k2, 3:1 CPR:CYP, 70 uM paclitaxel, 37 °C",CYP2C8-R139K (human),6.02 ms^-1
same,"stopped-flow CO binding (first electron transfer from CPR), fast phase k1, 1:1 CPR:CYP, 70 uM paclitaxel, 37 °C",[1],0.468 s⁻¹
same,"stopped-flow CO binding (first electron transfer from CPR), monophasic k2, 3:1 CPR:CYP, 70 uM paclitaxel, 37 °C",[2],13.7 ms^-1
